Measured values as given in US20140271478A1 (University of California, published 2014).
Changes are numbered by the printed parent chain.

How the values were obtained:
mouse integrin β8 [1] = biological target: T1, mouse integrin β8 (mouse, UniProt Q0VBD0 22-767); test: cell surface staining, flow cytometry
T1 construct: whole, on cells; also called mouse β8; itgb8
T1 sequence (looked up): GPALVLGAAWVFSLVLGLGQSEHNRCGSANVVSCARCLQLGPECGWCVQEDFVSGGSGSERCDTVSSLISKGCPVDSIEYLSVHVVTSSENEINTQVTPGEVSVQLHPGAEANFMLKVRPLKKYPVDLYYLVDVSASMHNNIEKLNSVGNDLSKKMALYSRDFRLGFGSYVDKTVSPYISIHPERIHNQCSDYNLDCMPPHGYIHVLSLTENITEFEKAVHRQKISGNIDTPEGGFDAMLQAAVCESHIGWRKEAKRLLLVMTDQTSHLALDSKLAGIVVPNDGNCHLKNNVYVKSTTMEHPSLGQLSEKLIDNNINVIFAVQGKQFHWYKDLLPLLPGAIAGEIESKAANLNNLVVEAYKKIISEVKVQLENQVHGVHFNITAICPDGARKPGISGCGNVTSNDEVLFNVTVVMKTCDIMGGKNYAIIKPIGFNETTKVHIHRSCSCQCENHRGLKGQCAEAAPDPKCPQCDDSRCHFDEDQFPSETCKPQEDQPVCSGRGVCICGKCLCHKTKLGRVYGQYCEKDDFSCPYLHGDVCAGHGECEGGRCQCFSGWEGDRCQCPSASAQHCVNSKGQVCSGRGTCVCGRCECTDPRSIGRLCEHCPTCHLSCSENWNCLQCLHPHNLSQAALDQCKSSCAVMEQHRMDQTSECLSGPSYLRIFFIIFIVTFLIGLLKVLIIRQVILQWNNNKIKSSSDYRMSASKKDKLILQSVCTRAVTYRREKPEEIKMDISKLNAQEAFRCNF

[2] = biological target: T2, human integrin β8 swap construct V R I N S (SEQ ID NO:124) (human, UniProt P26012 43-769); test: flow cytometry, cell surface staining of β8 amino acid swap constructs
T2 sequence: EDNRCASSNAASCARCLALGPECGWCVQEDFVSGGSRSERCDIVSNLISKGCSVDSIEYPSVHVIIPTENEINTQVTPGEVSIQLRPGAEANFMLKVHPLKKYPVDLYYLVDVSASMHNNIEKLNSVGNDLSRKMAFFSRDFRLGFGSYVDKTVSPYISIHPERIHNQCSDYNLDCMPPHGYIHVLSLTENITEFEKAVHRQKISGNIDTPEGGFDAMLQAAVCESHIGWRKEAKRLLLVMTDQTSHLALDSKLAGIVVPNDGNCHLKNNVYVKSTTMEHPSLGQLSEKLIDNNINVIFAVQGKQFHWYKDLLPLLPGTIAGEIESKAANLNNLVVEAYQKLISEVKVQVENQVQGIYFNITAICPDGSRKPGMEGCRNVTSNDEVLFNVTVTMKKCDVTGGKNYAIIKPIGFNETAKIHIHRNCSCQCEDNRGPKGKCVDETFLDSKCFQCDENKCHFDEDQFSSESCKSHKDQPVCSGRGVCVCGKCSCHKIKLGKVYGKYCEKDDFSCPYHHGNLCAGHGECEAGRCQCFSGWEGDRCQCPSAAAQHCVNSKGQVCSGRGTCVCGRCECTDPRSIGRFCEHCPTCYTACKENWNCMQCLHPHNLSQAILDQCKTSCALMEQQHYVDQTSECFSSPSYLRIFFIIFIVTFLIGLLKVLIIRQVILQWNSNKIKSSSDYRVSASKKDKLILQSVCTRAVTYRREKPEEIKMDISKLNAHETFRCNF

[3] = biological target: T3, human integrin β8 swap construct I G I N P (SEQ ID NO:125) (human, UniProt P26012 43-769); test: as above
T3 sequence: T2 sequence with V32I, R37G, S53P

[4] = biological target: T4, human integrin β8 swap construct I G I N S (SEQ ID NO:126) (human, UniProt P26012 43-769); test: as above
T4 sequence: T2 sequence with V32I, R37G

[5] = biological target: T5, human integrin αβ8 (αvβ8) expressed on cells (human, UniProt P06756 31-1048); test: as above
T5 construct: whole, on cells; β8 transfected into or endogenous on cells, unfixed or formalin fixed; also called human integrin β8; ITGB8
T5 sequence (P06756 31-1048): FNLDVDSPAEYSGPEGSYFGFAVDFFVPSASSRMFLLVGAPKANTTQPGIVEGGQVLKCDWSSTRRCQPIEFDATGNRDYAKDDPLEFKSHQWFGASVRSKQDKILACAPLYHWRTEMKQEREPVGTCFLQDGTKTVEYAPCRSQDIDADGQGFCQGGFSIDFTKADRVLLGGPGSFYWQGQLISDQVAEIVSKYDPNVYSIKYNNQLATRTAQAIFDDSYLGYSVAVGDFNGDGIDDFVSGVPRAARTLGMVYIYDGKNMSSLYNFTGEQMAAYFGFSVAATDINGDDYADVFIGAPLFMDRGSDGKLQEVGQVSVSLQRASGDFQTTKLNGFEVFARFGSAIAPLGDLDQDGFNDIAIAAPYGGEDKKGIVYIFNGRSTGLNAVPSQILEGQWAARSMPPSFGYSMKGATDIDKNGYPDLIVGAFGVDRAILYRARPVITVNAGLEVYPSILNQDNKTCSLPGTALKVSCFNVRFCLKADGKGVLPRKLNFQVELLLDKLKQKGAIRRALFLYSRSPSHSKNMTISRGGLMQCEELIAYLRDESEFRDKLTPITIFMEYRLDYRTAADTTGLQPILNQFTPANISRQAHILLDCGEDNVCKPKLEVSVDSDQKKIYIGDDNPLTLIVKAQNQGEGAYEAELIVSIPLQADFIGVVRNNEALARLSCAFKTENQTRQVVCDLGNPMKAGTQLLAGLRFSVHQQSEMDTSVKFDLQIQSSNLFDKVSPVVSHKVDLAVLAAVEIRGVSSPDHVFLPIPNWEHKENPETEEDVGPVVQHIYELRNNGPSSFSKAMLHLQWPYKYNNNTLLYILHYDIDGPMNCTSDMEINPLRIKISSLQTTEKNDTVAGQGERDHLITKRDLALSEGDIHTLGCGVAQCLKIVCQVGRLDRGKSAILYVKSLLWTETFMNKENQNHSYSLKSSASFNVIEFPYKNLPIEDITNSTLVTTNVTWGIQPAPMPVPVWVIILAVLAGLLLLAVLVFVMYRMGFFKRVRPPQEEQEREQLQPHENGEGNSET

mouse integrin β8 [6] = biological target: T1, mouse integrin β8; test: as above

B1: 4F1 antibody (antibody, V domains shown)
VH: QVQLQQSGAELVRPGTSVKVSCKASGYAFTNYLIEWVKQRPGQGLEWIGVINPGTGGTNYNKKFKVKATLTADKSSSTAYMQLGGLTFDDSAVYFCAREGNARTYYYAMDYWGQGTSVTVSS
VL: DIEMTQTPASLSASVGETVTITCRASENIYSYLVWYQQKQGKSPQVLVYNAKTLAEGVPSRFSGSGSGTQFSLKINSLQPEDFGSYYCQHHNGTPYTFGGGTKLEIKR
notes: Hybridoma antibody; also called hybridoma clone 4F1
B1 was tested, and the binding result (mouse integrin β8 [1]) was “no binding”, the “% positive” value [2] was 92% and the “% positive” value [3] was 0%. The “% positive” value [4] was 101%, the “% positive” value [5] was 100% and the “% positive” value (mouse integrin β8 [6]) was 3%.

B2: 6B9 antibody (antibody, V domains shown)
VH: QVQLQQSGAELVRPGTSVKVSCKASGYAFTDYLIEWVKQRPGQGLEWIGVINPETGGTNYNAKFKGKATLTADKSSSSAYMQLSSLTSGDSAVYFCAREAGNYIYAMDYWGQGTSVTVSS
VL: B1 VL with E3Q, T7S, E27V, V46L, Y49H, N92H
notes: Hybridoma antibody; also called hybridoma clone 6B9
In the case of B2, the binding result (mouse integrin β8 [1]) is reported as “no binding”, the “% positive” value [2] is reported as 102% and the “% positive” value [3] is reported as 1%. For the same binder, the “% positive” value [4] was 104%, the “% positive” value [5] was 100% and the “% positive” value (mouse integrin β8 [6]) was 6%.
